Data on one substance can be found in patent US20200370136.

In data set [1] the test system is T7 RNA polymerase, SNAPf fusion, anchored on DNA origami tile (T7-chip) (bacteriophage T7?). To be noted: apparent Michaelis Km of transcription for externally diffusing gene; 10 mM MgCl2, 37 C; Vmax 34 nM/s.
For data set [2], the system named is T7 RNA polymerase, SNAPf fusion (T7 RNAP-SNAPf), freely diffusing (bacteriophage T7?). The following applies: Michaelis Km of transcription; 10 mM MgCl2, 37 C; Vmax 62 nM/s.

On to “sfGFP gene with T7 promoter (942 nt transcript)”, for which the K half in data set [1] came out at 1010 nM; in data set [2], 5.6 nM.
